The results in this text go back to the nanobody polyreactivity screen of Harvey et al. (2022).

This data set is described as follows: yeast display, Sf9 membrane polyspecificity reagent, FACS + sequencing; frameworks hold sequencing errors. Summed up: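 Galactose induction of a Saccharomyces cerevisiae BJ5465 synthetic nanobody display library ran 36–48 hours. The cells were then stained for 1 hour at 4 °C with 10% biotinylated, detergent-solubilized Sf9 membrane reagent, pulled down on streptavidin microbeads and FACS-sorted into low and high (top ~1%) gates on expression and reagent-binding fluorescence. Labels for polyreactivity follow the gate of origin.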
Consider “QVQLVESGGVLVQAGGSLRLSCAASGSTFSWYAMGWYRQAPGKERELFAGITRSDGSTYYADSVKGRFTNSRDNAKNNVYLQMNSLKPEDTAVYYCAADDYIIRYGTNVDYWGQGTQVTVSS”, for which the “polyreactivity (PSR sort gate)” value is “low polyreactivity”.

Turning to “QVQLVESGGVLVQAGGSLRLSCAASGSTFTYNAMGWYRQAPGKEREFVAANSVGGGITYYADSVKGRFTISRDYAKNTVYLQMKSLKPEDTAVYYCAADGEYPHSEDFEYWGQGTQVTVSS”, the “polyreactivity (PSR sort gate)” value is listed as “low polyreactivity”.

In the case of “QVQLVESGGVLVQAGGSLRLSCAASGSTFVRNAMGWYRQAPGKEWELVAAITGTGDSTYYADSVKGRFTISRDNAKNTVYLQMNSLKPEDTAVYYCAANSDAYRYWYDYWGQGTQVTVSS”, the “polyreactivity (PSR sort gate)” value is listed as “low polyreactivity”.

Regarding “QVQLVESGGVLVQAGGSLRLSCAASGSTFYRYAMGWYRQAPGKERELVAANTRGSRTYYADSVKGRFTISRDNAKNTVYLQMNSLKPEDTAVYYCAAYRDYGSYGSWGQGTQVTVSS”, the “polyreactivity (PSR sort gate)” value is “high polyreactivity”.

Turning to “QVQLVESGGVLVQAGGSLRLSCAASGYIFQTYAMGWYRPAPGKEREFVAAISFIGSSTRYADSVKGRFTISRDNAKNTVYLQMNSLKPEDTAVYYCNNDTITSTWTPYTSWFGYWGQGTQVTVSS”, the “polyreactivity (PSR sort gate)” value is “high polyreactivity”.

Turning to “QVQLVESGGVLVQAGGSLRLSCAATGRIKDNVMGWYRQAPGKERELVAAITRSARRTYYADSVTGRFTISRDNAKNTVYLQMNSLKPEDTAVYYCAAQAERYGFEYWGQGTQVTVSS”, the “polyreactivity (PSR sort gate)” value is given as “low polyreactivity”.

With “QVQLVESGGVLVQAGGSLRLSCAATVFIFKGNAMGWYRQAPGKEREFVADISARGGSTYYADSVKGRFTISRDNAKNTVYLQMNTLKPEDTAVYYCAATTGLYTRYGYWGQGTQVTVSS”, the “polyreactivity (PSR sort gate)” value is given as “high polyreactivity”.

For “QVQLVESGGVLVQAGGSLRLSCPASGRIYDGYAMGWYRQAPGKERELVAAINSNDGTTYYADSVKGRFTISRDNAKNTVYLQMNSLKPEDTAVYYCAKVSYNAWSYGPQMDYWGQGTQVTVSS”, the “polyreactivity (PSR sort gate)” value is “low polyreactivity”.

Regarding “QVQLVESGGVLVQAGGSLRLSSAAYGFIFAKYAMVWYIQAHGKERELVAGISESCGSTYYADSVKGRFTISRDNAKNTVYLQLNSLKPEDTAVYYCNADDTVYFIKAGDYWGQGTQGTVSS”, the “polyreactivity (PSR sort gate)” value is recorded as “high polyreactivity”.

For “QVQLVESGGVLVQAGVSLRLSCAASGRNFLWYVMGCYRQAPGKERELVAAISSGGRTYYADSVKGRFTSSRDNAKHTLYLQMNSLKPEDTAVYYCAAVRRYLKAAYGYWGQGTQVTVSS”, the “polyreactivity (PSR sort gate)” value is “low polyreactivity”.

In the case of “QVQLVESGGVLVQAVGSLRLSCAASGRIFYPYVMGWYRPAPGKERELVASITSGGGTYYADSVKGRFTISRDNAKNTVYLQMNSLKPEDTAGYYCNALAIWSEDWDHWISYADDYSGQGTQVTVSS”, the “polyreactivity (PSR sort gate)” value was “low polyreactivity”.

“QVQLVESGPGLVQAGGSLRLSCAASGRIFTANAMGWYRQAPGKERELVAAITTSDGTYYADSVKGRFTISRDNAKNTVYLQMYSLKPEVTAVYYCATDTATYPPAMDDWGQGTQVTVSS”: the “polyreactivity (PSR sort gate)” value was “low polyreactivity”.

“QVQLVESGRALVQAGGSLRLSCAASGFTFWTNTMGWYIQAPGKERELVAAITSTGGTTYYADSVKGRFTISRDNAKNTVYLQMNSLKAEDTAVYYCAAELGGYVASYYYPGYDYWGQGTQVTVSS”: the “polyreactivity (PSR sort gate)” value is “low polyreactivity”.

“QVQLVESGRGFVQAGGRLRLSCAASGRTFGRYTMGWYRQAPGKDRELVASISNTARTNYADSVKGRFTISRDNAKNTVYLQMNSLKPEDTAVYYCAATYIVRYGYWGQGTQVTVSS”: the “polyreactivity (PSR sort gate)” value is listed as “low polyreactivity”.

On to “QVQLVESGRGIVQAGGSLRLSCAASGIIFGGNAMVWYRQAPGKERELVARIRWGGGSTYYADSVKGRFTISRDNAKNTVYLQMNSLKPEDTAVYYCARTTSYLTSTRRYYYWGQGTQVTVSS”, for which the “polyreactivity (PSR sort gate)” value is recorded as “high polyreactivity”.

With “QVQLVESGRGIVQAGGSLRLSCAASGLSFSNYAMGWYRQAPGKERELVARITTSGGRTYYADSVKGRFTISRDNANNTEYLKMNSLKPEDTAVYYCAANNRRRPSYDYDSWGQGTQVTVSS”, the “polyreactivity (PSR sort gate)” value is reported as “low polyreactivity”.

Regarding “QVQLVESGRGLDQAGGSHRISCAGSARIFTIYAMGCYRQAPGKERELVAAISKSGGRTYYADSVKGRFTISRDNAKNTVYVQMNSLKPEDTAVYYCAARWRSWRYKYDYWGQGTQVTVSS”, the “polyreactivity (PSR sort gate)” value is listed as “high polyreactivity”.

Consider “QVQLVESGRGLFQAGGSLRISCAPSGSNFGYYTMGWYRQAPGKDRELVAAITWSGGSTYYADSVKGRFTISRDNAKNTDYLQMYSLKPEDTAVYYCAADGFYYRNWGRIRYYYWGQGTQVTVSS”, for which the “polyreactivity (PSR sort gate)” value is on record as “low polyreactivity”.

With “QVQLVESGRGLVHAGGSLRISCAASGSTYTWNVMGWYRQAPGKERELVADINSGADTSYADSVKGRFTISRDNAKNTVYLQMNSLKPEDTGVYYCAADIYVYDYWGQGTQVTVSS”, the “polyreactivity (PSR sort gate)” value is recorded as “low polyreactivity”.

In the case of “QVQLVESGRGLVHAGGSLRLSCAASGFILGVNERGWYRQAPGKERELVAAISQGDGSKYYADSVKGRFTISRDNANNTVYLQMNSLKPEDTAVYYCNAELYRDLRGYDHWGQGTQVTVSS”, the “polyreactivity (PSR sort gate)” value is “low polyreactivity”.

In the case of “QVQLVESGRGLVLAGGSLRLSCAASGFIFSYNAMGSYRLAPGKERELVAAISSSGGTTYYADSVKGRFTISRDNAKNTVYLQMNSLKPEDTAVYYCAADGRTYHHHDCGWYRYDYWGQGSQVTVSS”, the “polyreactivity (PSR sort gate)” value is reported as “low polyreactivity”.

As to “QVQLVESGRGLVQAGCSLRLSCAASGRTFSLYAMGWYRQAPGKERELVAAITLSAGSTYYADSVKGRFTISRDNEKNTVYLQMNSLKPEDTAVYYCNTRTLVAMGYWGQGTQVTVSS”, the “polyreactivity (PSR sort gate)” value is “high polyreactivity”.

With “QVQLVESGRGLVQAGGILRLFCAASGSTFVSYAIAWYRQAPGKERELVAAISRSGGSTYYADSVKGRFTISRDNAKNTVYLQMNSLKTEDTAVYYCAAVRYWSDYDYWGQGTKVTVSS”, the “polyreactivity (PSR sort gate)” value is recorded as “high polyreactivity”.

Take “QVQLVESGRGLVQAGGRQRLSSAASGTTFGRYAMGWTRQAPGKQRELVAAISESDGSTYYADSVKGRFTISRDNAKNTVYLQMNSLTPEDTSVYYCAAEWTHYWWYQYDYWGQGTQVTVSS”: the “polyreactivity (PSR sort gate)” value is “high polyreactivity”.

Take “QVQLVESGRGLVQAGGSLRISCAASGLILYTYAMGWYRQAPGKERELVAAITKSGGRTYYADSVKGRFTISRDNAKNTVYLQMNSLKPEDTAVYDCAARPYSRPYSFGFYYWGQGTQVTVSS”: the “polyreactivity (PSR sort gate)” value is reported as “high polyreactivity”.

Turning to “QVQLVESGRGLVQAGGSLRISCAASGRIFFYYTMGWYRQAPGRERELVAAINSTGATNYADSVKGRFTISRDNAKNTVYLQMNSLKPEDTAVYYCNAGTRYIFLYPPFLGAAFDYWGQGTQVTVSS”, the “polyreactivity (PSR sort gate)” value is reported as “low polyreactivity”.

As for “QVQLVESGRGLVQAGGSLRLICAASGLTFHRYAMGWYRQAPGKERELVAALTWRGVSTYYADSVKGRFTISRDNAKNTVYLQMNSLKPEDTAVYYCAADDYFYDPYEYWGQGTIVTVSS”, the “polyreactivity (PSR sort gate)” value is “high polyreactivity”.

“QVQLVESGRGLVQAGGSLRLRGAASGSTSWSNAMGWYRQAPGKERELVAAITTGASTYYADSVKGRFTSSRDNAKNTVYLQMNSLKPEDTAVYYCAADPWVLWSYYYWGQGTQVTVSS”: the “polyreactivity (PSR sort gate)” value was “low polyreactivity”.

For the sequence “QVQLVESGRGLVQAGGSLRLSCAASASTFYYNAMGWYRQAPGKEREFVAGITSSGAGTYYADSVKGRFTISRDNAKKTVYLQMNSLKPEDTAVYYCAAVYRWEGRTYRYVYWGQGTQVTVSS”, the “polyreactivity (PSR sort gate)” value is “high polyreactivity”.

Regarding “QVQLVESGRGLVQAGGSLRLSCAASGFIFRTYVMGWSRQATGKERELVAAITSSGGSTYYADSVKGRFTISRDTAKNTVYLQMNSLIPEDTAVYYCNAYPVYGRYTHYGYGHWGQGTQVTVSS”, the “polyreactivity (PSR sort gate)” value is “high polyreactivity”.

As to “QVQLVESGRGLVQAGGSLRLSCAASGFTFGYYAMGWYRQAPGKERELVASISRSGGSTNYADSVKGRFTISRDNAKNTVYLQMNSLKPEDTAVYYCNKRSYWYQGRFDYWGQGTQVTVSS”, the “polyreactivity (PSR sort gate)” value was “high polyreactivity”.

On to “QVQLVESGRGLVQAGGSLRLSCAASGFTFRRYAMVWYRQAPGKERELVAAITRNGGSTYYADSVKGRFTISRDNAKNTVYFQMNRLKPEDTEVYYCNAVLYTPVYDGFDSWGQGTQVTVSS”, for which the “polyreactivity (PSR sort gate)” value is given as “high polyreactivity”.

As for “QVQLVESGRGLVQAGGSLRLSCAASGFTFYIYAMGWYRQAPGKERELVAAINFGGGGTYYADSVKGRFTISRDNAKNTVYLQMNSLKPEDTAVYYCAADYWYDYYSTEYDYWGQGTQVTVSS”, the “polyreactivity (PSR sort gate)” value was “low polyreactivity”.

Turning to “QVQLVESGRGLVQAGGSLRLSCAASGFTIDYYAIAWYRQAPGKERELVADISSDGSTYADSVKGRFTISRDNAKNTVYLQMNSLKPEDTAVYYCNAYLSKYFRYDYWGQGTQVTVSS”, the “polyreactivity (PSR sort gate)” value is listed as “high polyreactivity”.

As for “QVQLVESGRGLVQAGGSLRLSCAASGIIFGSYAMGWYRQAPGKEMELVAAISRGTSTYYADSVKGRFTISRDNAKITVYLQMNSLNPEDTAVYYCAATRQEYGPHSRFVYVNYYYWGQGTQVTVSS”, the “polyreactivity (PSR sort gate)” value was “low polyreactivity”.

Take “QVQLVESGRGLVQAGGSLRLSCAASGITFRYYAMGWYRPAPGKERELVAAITRGGRTNYADSVKGRFTISRDNAKNTVYLQMNSLKPEDTAVYYCATGRDSNFGNSYYYWGQGTQVTVSS”: the “polyreactivity (PSR sort gate)” value was “high polyreactivity”.

“QVQLVESGRGLVQAGGSLRLSCAASGITFTGYAMGWYRQAPGKERELVAASTSGGSTTYADSVKGRFTISRDNAKNTVYLQMNSQKPEDTAVYYCGARTADYSTAEYDYWGQGTQLTVSS”: the “polyreactivity (PSR sort gate)” value is “low polyreactivity”.

Consider “QVQLVESGRGLVQAGGSLRLSCAASGRIFKTYAMGWYRQAPGKERELVAAITTSGDSTYYADSVKGRFTISRDNAKNTVYLQMNSLKPEDTAVYYCAARPRVRSSYRYYYWGQGTQLTVSS”, for which the “polyreactivity (PSR sort gate)” value is “high polyreactivity”.

Take “QVQLVESGRGLVQAGGSLRLSCAASGRIFRYYTMGCYRQAPGKERELVASITYRGTSTYYADSVKGRFTISRDNAKNTVYLQMTSLKPEDTAVYYCNKDLFFRSISSKYDYWGQGTQVTVSS”: the “polyreactivity (PSR sort gate)” value is reported as “high polyreactivity”.

Consider “QVQLVESGRGLVQAGGSLRLSCAASGRIFSGNAMGWYRQAPGKERELVAGITWTGGRTYYAASVKGRFTISRDNAKNTVYLQMNSLKPEDTAVYYCAARYTRWSDLMYYWGQGTQVTVSS”, for which the “polyreactivity (PSR sort gate)” value is on record as “high polyreactivity”.

For the sequence “QVQLVESGRGLVQAGGSLRLSCAASGRIFVAYTMGLYRQAPGKERELVASINRSGGTYYADSVKGRFTISRDNAKNTVYLQMNRLKPEDTAVYYCNAVFRSRSYFSKGDYWGQGTQVTVSS”, the “polyreactivity (PSR sort gate)” value is “high polyreactivity”.
